Assay results as given in PMC8891041.

Target: human parathyroid hormone type 1 receptor (hPTHR) (human) (UniProt Q03431)
Assay: radioligand binding

Sequence of UniProt Q03431 (Q03431 27-593): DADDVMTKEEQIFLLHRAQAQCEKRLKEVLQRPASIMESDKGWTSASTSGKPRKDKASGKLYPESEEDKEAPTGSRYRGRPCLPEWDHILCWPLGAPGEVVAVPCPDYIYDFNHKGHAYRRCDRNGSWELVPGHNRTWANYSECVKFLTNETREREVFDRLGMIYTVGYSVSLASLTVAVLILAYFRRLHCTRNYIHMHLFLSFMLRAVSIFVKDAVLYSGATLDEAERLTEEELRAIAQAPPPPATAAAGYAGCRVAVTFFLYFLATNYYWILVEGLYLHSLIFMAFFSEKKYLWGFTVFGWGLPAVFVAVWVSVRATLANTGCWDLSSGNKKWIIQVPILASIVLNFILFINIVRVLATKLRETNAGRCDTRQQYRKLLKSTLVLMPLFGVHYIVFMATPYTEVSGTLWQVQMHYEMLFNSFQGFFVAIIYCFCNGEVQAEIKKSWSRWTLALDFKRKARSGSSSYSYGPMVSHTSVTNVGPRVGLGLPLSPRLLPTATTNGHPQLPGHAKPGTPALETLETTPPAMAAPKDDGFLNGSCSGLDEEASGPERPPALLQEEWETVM

| Substance | pKi |
| --- | --- |
| PTH(1-34) (peptide) | 8.26 |
| M-PTH(1-15) (peptide) | 10.8 |
